Results: PMC314469, “Protein Interaction Networks by Proteome Peptide Scanning” (PLoS Biology, 2004)

T1: Boi2 SH3 (BOI2_YEAST), P39969
T1 chain: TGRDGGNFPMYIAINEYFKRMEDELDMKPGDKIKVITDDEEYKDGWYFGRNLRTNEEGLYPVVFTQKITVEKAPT

T2: Yhr016c SH3 (YSC84_YEAST), P32793
T2 chain: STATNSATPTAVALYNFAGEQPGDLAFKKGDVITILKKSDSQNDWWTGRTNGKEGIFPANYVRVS

T3: Rvs167 SH3 (RV167_YEAST), P39743
T3 chain: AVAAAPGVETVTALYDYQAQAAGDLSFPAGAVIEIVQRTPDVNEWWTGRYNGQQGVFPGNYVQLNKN

T4: Myo5 SH3 (MYO5_YEAST), Q04439
T4 chain: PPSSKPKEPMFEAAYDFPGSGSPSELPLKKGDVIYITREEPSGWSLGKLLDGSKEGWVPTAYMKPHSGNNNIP

T5: Boi1 SH3 (BOI1_YEAST), P38041
T5 chain: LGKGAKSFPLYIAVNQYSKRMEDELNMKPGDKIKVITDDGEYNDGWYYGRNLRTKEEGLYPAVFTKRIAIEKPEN

T6: Yfr024 SH3 (LSB3_YEAST), P43603
T6 chain: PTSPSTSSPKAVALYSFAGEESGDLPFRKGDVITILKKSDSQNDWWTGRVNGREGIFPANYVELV


Columns and labels:
Assay in all cases: SPOT array
[1] = molecular target: T1, Boi2 SH3 (BOI2_YEAST), P39969
[2] = molecular target: T2, Yhr016c SH3 (YSC84_YEAST), P32793
[3] = molecular target: T3, Rvs167 SH3 (RV167_YEAST), P39743
[4] = molecular target: T4, Myo5 SH3 (MYO5_YEAST), Q04439
[5] = molecular target: T5, Boi1 SH3 (BOI1_YEAST), P38041
[6] = molecular target: T6, Yfr024 SH3 (LSB3_YEAST), P43603
[7] = molecular target: Sho1 SH3 (SHO1_YEAST), P40073
Chain of Sho1 SH3 (SHO1_YEAST), P40073 (P40073 295-366): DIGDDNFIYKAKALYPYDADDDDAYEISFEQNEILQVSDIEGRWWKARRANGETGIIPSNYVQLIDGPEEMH

Binder | normalised SPOT signal, Boehringer light units (BLU); mean over the file's lines of this peptide [1] | normalised SPOT signal, Boehringer light units (BLU); mean over the file's lines of this peptide [2] | normalised SPOT signal, Boehringer light units (BLU); mean over the file's lines of this peptide [3] | normalised SPOT signal, Boehringer light units (BLU); mean over the file's lines of this peptide [4] | normalised SPOT signal, Boehringer light units (BLU); mean over the file's lines of this peptide [5] | normalised SPOT signal, Boehringer light units (BLU); mean over the file's lines of this peptide [6] | normalised SPOT signal, Boehringer light units (BLU); mean over the file's lines of this peptide [7]
KVLIKTLPVLPEAR [YNL271C 1679-1692] | 5.4 | 0 | 84.2 | 237 | 142 | 251 | 3050
KVNFRRIPTGPDSP [YIL131C 136-149] | 24.3 | 44.4 | 160 | 503 | 1120 | 234 | 119
KVQIKKVPTDPSSS [YBR136W 25-38] | 64.7 | 13.5 | 44.5 | 191 | 1460 | 9.9 | 28.2
KVSSKYDPDNPNKD [YBR235W 48-61] | 23.8 | 32.1 | 95.8 | 434 | 127 | 44.7 | 31.3
KYSFKLVPPQPGSK [YBL085W 849-862] | 20 | 29.7 | 40.4 | 219 | 198 | 104 | 70.4
KYIIKTEPESPEED [YLR133W 510-523] | 39.6 | 34.1 | 34 | 246 | 100 | 6.9 | 55.5
LAAHKTKPSIPPKK [YPR171W 350-363] | 18.8 | 36 | 16.5 | 249 | 477 | 1730 | 76.5
LAGIRLVPVLPILL [YLR235C 75-88] | 22.4 | 493 | 12800 | 152 | 63.1 | 2480 | 22.2
LAPKREAPKPPANT [YJL095W 802-815] | 28.5 | 29.7 | 69.8 | 116000 | 179 | 47.5 | 71.2
LASDKGLPMIPAFV [YCL040W 56-69] | 134 | 62.8 | 51.5 | 79.9 | 94.4 | 48.3 | 15200
LAYERPLPDLPSTI [YKR027W 747-760] | 14.3 | 8470 | 3530 | 132 | 41.8 | 4460 | 64100
LDKGKHVPSKPVSN [YKL054C 145-158] | 12.7 | 4.8 | 60.9 | 201 | 364 | 18.1 | 76.4
LDLSKYGPLPPSRA [YLR143W 384-397] | 20.4 | 256 | 207 | 154 | 1630 | 359 | 78.9
